Experimental findings from patent publication US20250376519A1 (JIANGSU HENGRUI PHARMACEUTICALS, published 2025) are described below.

For assay [1], the target named is T1, human DLL3 (ACRO, DLL3-H52H4) (human, UniProt Q9NYJ7 27-492).
T1 construct: Bought
T1 sequence: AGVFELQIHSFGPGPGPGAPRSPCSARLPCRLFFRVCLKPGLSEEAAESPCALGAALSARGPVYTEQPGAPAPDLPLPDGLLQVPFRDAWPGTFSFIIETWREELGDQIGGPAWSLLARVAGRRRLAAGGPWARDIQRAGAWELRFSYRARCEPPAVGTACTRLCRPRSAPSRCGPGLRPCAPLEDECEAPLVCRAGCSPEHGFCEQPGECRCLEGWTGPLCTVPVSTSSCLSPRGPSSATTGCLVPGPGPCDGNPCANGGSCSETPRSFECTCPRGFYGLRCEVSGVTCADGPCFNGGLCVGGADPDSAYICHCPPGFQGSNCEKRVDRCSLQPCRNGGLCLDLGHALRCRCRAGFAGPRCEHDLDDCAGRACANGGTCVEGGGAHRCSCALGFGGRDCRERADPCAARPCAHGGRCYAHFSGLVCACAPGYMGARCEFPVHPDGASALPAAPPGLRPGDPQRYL
Put plainly: SPR Biacore 8K, Ab captured on Protein A. An outline of the steps:
(§1)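 Antibodies captured on a Protein A chip for 18 s; DLL3 or CD3D&3E antigen flowed 180 s, then 600 s dissociation, with real-time detection. Regeneration used 10 mM glycine-HCl pH 1.5 between cycles. Kinetics were obtained by 1:1 model fitting.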
(In general: In SPR one partner is held on a chip, and binding of the other changes the refractive index at the surface.)

The target of assay [2] is T2, monkey CD3D&3E (ACRO, CDD-C52W4) (cynomolgus monkey, UniProt Q95LI8 22-105; Q95LI5 22-117).
T2 construct: bought CD3 delta/epsilon protein; also called cynomolgus monkey CD3
Put plainly: SPR Biacore 8K, Ab captured on Protein A. An outline of the steps:
as §1

Assay [3] deals with T3, mouse DLL3 (KACTUS, DLL-MM103) (mouse, UniProt O88516 33-490, limits assumed).
T3 construct: Bought
T3 sequence: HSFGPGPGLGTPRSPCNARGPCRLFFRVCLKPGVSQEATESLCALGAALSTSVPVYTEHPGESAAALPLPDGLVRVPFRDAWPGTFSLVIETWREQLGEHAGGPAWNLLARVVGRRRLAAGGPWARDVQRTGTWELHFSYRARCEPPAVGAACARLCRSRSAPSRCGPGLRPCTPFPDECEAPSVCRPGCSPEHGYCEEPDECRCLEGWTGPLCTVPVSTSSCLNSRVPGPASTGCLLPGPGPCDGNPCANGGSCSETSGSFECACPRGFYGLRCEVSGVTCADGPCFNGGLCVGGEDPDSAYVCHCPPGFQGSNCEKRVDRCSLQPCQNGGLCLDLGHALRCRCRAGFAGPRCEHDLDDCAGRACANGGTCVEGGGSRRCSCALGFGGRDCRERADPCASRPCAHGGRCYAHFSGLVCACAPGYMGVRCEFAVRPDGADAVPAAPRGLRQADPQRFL
Put plainly: SPR Biacore 8K, Ab captured on Protein A. The essentials:
as §1

The target of assay [4] is T4, cynomolgus monkey DLL3 (KACTUS, DLL-RM103) (cynomolgus monkey, UniProt Q9NYJ7 27-492 (human entry), limits assumed).
T4 construct: Bought
T4 chain: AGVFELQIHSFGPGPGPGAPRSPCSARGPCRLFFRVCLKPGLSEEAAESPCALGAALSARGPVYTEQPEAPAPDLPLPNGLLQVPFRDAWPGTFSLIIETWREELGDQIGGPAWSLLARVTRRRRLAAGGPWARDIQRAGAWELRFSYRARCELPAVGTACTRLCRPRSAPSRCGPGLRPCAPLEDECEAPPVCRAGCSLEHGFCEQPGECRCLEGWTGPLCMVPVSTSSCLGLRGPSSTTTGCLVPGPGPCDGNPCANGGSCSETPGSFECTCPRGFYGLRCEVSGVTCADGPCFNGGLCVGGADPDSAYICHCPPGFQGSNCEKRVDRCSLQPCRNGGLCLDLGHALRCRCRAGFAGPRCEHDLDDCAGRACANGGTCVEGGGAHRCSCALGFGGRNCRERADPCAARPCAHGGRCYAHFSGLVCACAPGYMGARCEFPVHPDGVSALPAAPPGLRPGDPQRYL
Put plainly: SPR Biacore 8K, Ab captured on Protein A. An outline of the steps:
as §1

Another assay addresses T5, CD3 on Jurkat cells (human).
T5 construct: whole, on cells; also called CD3-expressing Jurkat cells
Put plainly: flow cytometry, Jurkat cells. For orientation: A flow cytometer gives signals particle by particle.

T5 sequence (P07766 23-207, chain 1 of 4): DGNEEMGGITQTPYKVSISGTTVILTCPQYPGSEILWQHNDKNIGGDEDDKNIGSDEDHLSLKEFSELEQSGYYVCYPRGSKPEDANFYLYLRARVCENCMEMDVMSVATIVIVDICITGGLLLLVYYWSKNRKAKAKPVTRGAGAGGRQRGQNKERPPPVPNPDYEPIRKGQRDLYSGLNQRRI
T5 sequence (P09693 23-182, chain 2 of 4, further chain): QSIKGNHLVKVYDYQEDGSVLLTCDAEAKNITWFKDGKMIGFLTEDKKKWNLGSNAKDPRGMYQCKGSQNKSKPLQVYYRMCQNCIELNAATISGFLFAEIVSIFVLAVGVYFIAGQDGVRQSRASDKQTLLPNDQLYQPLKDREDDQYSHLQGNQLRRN
T5 sequence (P04234 22-171, chain 3 of 4, further chain): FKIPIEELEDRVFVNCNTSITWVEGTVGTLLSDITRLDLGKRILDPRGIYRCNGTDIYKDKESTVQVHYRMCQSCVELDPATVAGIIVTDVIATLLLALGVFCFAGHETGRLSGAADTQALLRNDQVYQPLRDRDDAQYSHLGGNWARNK
T5 sequence (P20963 22-164, chain 4 of 4, further chain): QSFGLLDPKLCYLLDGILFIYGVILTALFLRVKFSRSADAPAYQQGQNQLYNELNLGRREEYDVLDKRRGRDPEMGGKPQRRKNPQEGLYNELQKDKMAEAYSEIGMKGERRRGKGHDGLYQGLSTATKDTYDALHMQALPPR
T2 sequence (Q95LI8 22-105, chain 1 of 2): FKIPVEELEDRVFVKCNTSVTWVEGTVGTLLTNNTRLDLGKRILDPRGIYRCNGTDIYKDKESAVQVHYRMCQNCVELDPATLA
T2 sequence (Q95LI5 22-117, chain 2 of 2): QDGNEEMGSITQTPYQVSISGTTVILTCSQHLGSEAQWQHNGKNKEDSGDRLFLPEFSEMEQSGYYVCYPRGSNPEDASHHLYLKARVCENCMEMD

B1: hu110-I2C-Y body (bispecific antibody)
light: NIVMTQSPKSLAVSLGERATINCKASENVGIFVSWYQQKPGQSPKLLIYGASNRYTGVPDRFSGSGSATDFTLTISSLQAEDVADYYCGQSHSYPLTFGQGTKLEIKRTVAAPSVFIFPPSDEQLKSGTASVVCLLNNFYPREAKVQWKVDNALQSGNSQESVTEQDSKDSTYSLSSTLTLSKADYEKHKVYACEVTHQGLSSPVTKSFNRGEC
heavy: EVQLVQSGAEVKKPGASVKVSCKTSGYTFTDYYMNWVRQAPGQSLEWMGIINPYQGGTSYTQKFKGRVTITVDKSASTAYMELSSLRSEDTAVYYCARHFYDSSYLTYSTMDYWGQGTTVTVSSASTKGPSVFPLAPSSKSTSGGTAALGCLVKDYFPEPVTVSWNSGALTSGVHTFPAVLQSSGLYSLSSVVTVPSSSLGTQTYICNVNHKPSNTKVDKKVEPKSCDKTHTCPPCPAPEAAGGPSVFLFPPKPKDTLMISRTPEVTCVVVDVSHEDPEVKFNWYVDGVEVHNAKTKPREEQYNSTYRVVSVLTVLHQDWLNGKEYKCKVSNKALPAPIEKTISKAKGQPREPQVCTLPPSREEMTKNQVSLSCAVKGFYPSDIAVEWESNGQPENNYKTTPPVLDSDGSFFLVSKLTVDKSRWQQGNVFSCSVMHEALHNHYTQKSLSLSPGK
chain: not shown
notes: Format 2 (Y body: DLL3 Fab-Fc hole + CD3 scFv-Fc knob)
By Kd is commonly meant the concentration at which binding is half-saturated. What is called EC50 is the concentration at which the effect is half-maximal. As for B1, the Kd in assay [1] came to 0.125 nM; in assay [2], 2.32 nM; in assay [4], 0.762 nM. Besides, in assay [3], the binding result is “no binding”. Also, the EC50 in the assay with CD3 on Jurkat cells was 3.83 nM.

B2: hu110-S107E-hot Ig (bispecific antibody)
light 1: NIVMTQSPKSLAVSLGERATINCKASENVGIFVSWYQQKPGQSPKLLIYGASNRYTGVPDRFSGSGSATDFTLTISSLQAEDVADYYCGQSHSYPLTFGQGTKLEIKGGGGSSGAPRFLTRPKASVVSVGKDATLSCQIVGNPFPQVSWEKDKQPVTAGVRFRLAQDGDLYRLKILDLQLSDSGQYVCRARNAHGEAFACLGLQVDAEA
heavy 1: EVQLVQSGAEVKKPGASVKVSCKTSGYTFTDYYMNWVRQAPGQSLEWMGIINPYQGGTSYTQKFKGRVTITVDKSASTAYMELSSLRSEDTAVYYCARHFYDSSYLTYSTMDYWGQGTTVTVSSGGGGSGIPPKIECLPIDISIDEGKVLTVASAFTGEPTPEVTWSTGGRKIHSQEQGRFHIENTDDSTTLTIKDVQKQDGGLYTLTLRNEFGSDSATVNIHIRSIDKTHTCPPCPAPEAAGGPSVFLFPPKPKDTLMISRTPEVTCVVVDVSHEDPEVKFNWYVDGVEVHNAKTKPREEQYNSTYRVVSVLTVLHQDWLNGKEYKCKVSNKALPAPIEKTISKAKGQPREPQVCTLPPSREEMTKNQVSLSCAVKGFYPSDIAVEWESNGQPENNYKTTPPVLDSDGSFFLVSKLTVDKSRWQQGNVFSCSVMHEALHNHYTQKSLSLSPGK
heavy 2: not shown
light 2: not shown
notes: Format 1 (Hot-Ig, Titin/Obscurin-replaced DLL3 Fab), DLL3 x CD3
Broadly, the koff is the first-order rate constant of dissociation. For orientation: kon means a measure of how fast the partners come together. For B2, the results for the Kd in assay [1], in assay [2] and in assay [4] were 0.113 nM, 39.6 nM and 0.523 nM, respectively. Moreover, the values for the koff in assay [1], in assay [2] and in assay [4] were 2.82e-05 s⁻¹, 0.007 s⁻¹ and 6.43e-05 s⁻¹, respectively. Also, the kon came out at 249000 M⁻¹ s⁻¹ in assay [1], 177000 M⁻¹ s⁻¹ in assay [2] and 123000 M⁻¹ s⁻¹ in assay [4]. Moreover, in assay [3], the binding result is given as “no binding”. The molecule further displayed an EC50 in the assay with CD3 on Jurkat cells of 7.74 nM.

B3: hu110-I2C-hot Ig (bispecific antibody)
light 1: NIVMTQSPKSLAVSLGERATINCKASENVGIFVSWYQQKPGQSPKLLIYGASNRYTGVPDRFSGSGSATDFTLTISSLQAEDVADYYCGQSHSYPLTFGQGTKLEIKGGGGSSGAPRFLTRPKASVVSVGKDATLSCQIVGNPFPQVSWEKDKQPVTAGVRFRLAQDGDLYRLKILDLQLSDSGQYVCRARNAHGEAFACLGLQVDAEA
heavy 1: EVQLVQSGAEVKKPGASVKVSCKTSGYTFTDYYMNWVRQAPGQSLEWMGIINPYQGGTSYTQKFKGRVTITVDKSASTAYMELSSLRSEDTAVYYCARHFYDSSYLTYSTMDYWGQGTTVTVSSGGGGSGIPPKIECLPIDISIDEGKVLTVASAFTGEPTPEVTWSTGGRKIHSQEQGRFHIENTDDSTTLTIKDVQKQDGGLYTLTLRNEFGSDSATVNIHIRSIDKTHTCPPCPAPEAAGGPSVFLFPPKPKDTLMISRTPEVTCVVVDVSHEDPEVKFNWYVDGVEVHNAKTKPREEQYNSTYRVVSVLTVLHQDWLNGKEYKCKVSNKALPAPIEKTISKAKGQPREPQVCTLPPSREEMTKNQVSLSCAVKGFYPSDIAVEWESNGQPENNYKTTPPVLDSDGSFFLVSKLTVDKSRWQQGNVFSCSVMHEALHNHYTQKSLSLSPGK
heavy 2: not shown
light 2: not shown
notes: as for B2
With B3, the results for the Kd in assay [1], in assay [2] and in assay [4] were 0.119 nM, 1.5 nM and 0.616 nM, respectively. In addition, the binding result in assay [3] was “no binding”. The same molecule returned an EC50 with CD3 on Jurkat cells of 3.27 nM.
